According to patent US20220146515A1 (XIAMEN INNODX BIOTECH, published 2022):

Columns and labels:
Assay in all cases: competition ELISA, antibody preincubated with target, AMH-coated plate
[1] = target: T1, AMH truncated antigen 86-185aa (human)
T1 peptide: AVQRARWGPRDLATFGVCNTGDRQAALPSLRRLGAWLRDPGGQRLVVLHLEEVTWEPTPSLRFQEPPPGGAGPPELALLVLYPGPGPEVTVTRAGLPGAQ

[2] = target: T2, recombinant human AMH (anti-Mullerian Hormone) (human, UniProt P03971 25-560)
T2 construct: range 1-560; also called AMH antigen; AMH (1-560)
T2 sequence (looked up): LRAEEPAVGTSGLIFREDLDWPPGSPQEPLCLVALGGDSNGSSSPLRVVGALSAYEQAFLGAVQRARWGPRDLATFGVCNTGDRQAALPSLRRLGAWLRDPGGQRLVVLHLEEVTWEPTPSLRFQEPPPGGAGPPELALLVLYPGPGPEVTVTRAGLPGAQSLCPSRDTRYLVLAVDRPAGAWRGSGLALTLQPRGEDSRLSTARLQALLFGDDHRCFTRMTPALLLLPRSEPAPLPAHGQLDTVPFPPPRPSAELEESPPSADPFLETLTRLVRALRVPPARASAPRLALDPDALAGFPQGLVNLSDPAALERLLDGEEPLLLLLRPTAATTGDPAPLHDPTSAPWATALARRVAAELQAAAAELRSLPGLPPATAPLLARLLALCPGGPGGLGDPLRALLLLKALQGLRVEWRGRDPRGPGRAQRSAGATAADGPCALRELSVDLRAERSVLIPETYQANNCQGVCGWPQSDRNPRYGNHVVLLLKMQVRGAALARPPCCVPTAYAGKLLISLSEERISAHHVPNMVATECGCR

[3] = target: T3, AMH truncated antigen 461-560aa (human)
T3 peptide: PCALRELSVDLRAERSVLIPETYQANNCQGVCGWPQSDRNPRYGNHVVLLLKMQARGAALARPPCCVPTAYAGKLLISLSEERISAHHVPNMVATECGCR

[4] = target: T4, AMH truncated antigen 256-355aa (human)
T4 peptide: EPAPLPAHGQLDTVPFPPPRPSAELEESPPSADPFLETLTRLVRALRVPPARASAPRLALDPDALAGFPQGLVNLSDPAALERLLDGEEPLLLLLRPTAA

[5] = target: T5, AMH truncated antigen 41-55 (human)
T5 sequence (peptide): EDLDWPPGSPQEPLC

[6] = target: T6, AMH truncated antigen 31-44 (human)
T6 sequence (peptide): AVGTSGLIFREDLD

[7] = target: T7, AMH truncated antigen 41-50 (human)
T7 sequence (peptide): EDLDWPPGSP

[8] = target: T8, AMH truncated antigen 41-47 (human)
T8 sequence (peptide): EDLDWPP

[9] = target: T9, AMH3647-21 (Sheep sequence) (Sheep)
T9 sequence (peptide): TLIFQQGWDWPL

[10] = target: T10, AMH truncated antigen 42-50 (human)
T10 sequence (peptide): DLDWPPGSP

[11] = target: T11, AMH truncated antigen 41-51 (human)
T11 sequence (peptide): EDLDWPPGSPQ

[12] = target: T12, AMH truncated antigen 38-44 (human)
T12 sequence (peptide): IFREDLD

[13] = target: T13, AMH3647-26 (Monkey sequence) (Monkey)
T13 sequence (peptide): GLIFREDLGWPP

[14] = target: T14, AMH3647-5 (Diademed Sifaka sequence) (Diademed Sifaka)
T14 sequence (peptide): GLIFHEDWDWPP

[15] = target: T15, AMH truncated antigen 42-51 (human)
T15 sequence (peptide): DLDWPPGSPQ

[16] = target: T16, AMH truncated antigen 61-75 (human)
T16 sequence (peptide): GDSNGSSSPLRVVGA

[17] = target: T17, AMH truncated antigen 36-44 (human)
T17 sequence (peptide): GLIFREDLD

[18] = target: T18, AMH truncated antigen 39-45 (human)
T18 sequence (peptide): FREDLDW

[19] = target: T19, AMH3647-14 (Little mole rat sequence) (Little mole rat)
T19 sequence (peptide): GLIFLQDGMWSP

[20] = target: T20, AMH truncated antigen 37-43 (human)
T20 sequence (peptide): LIFREDL

[21] = target: T21, AMH3647-3 (Hamster sequence) (Hamster)
T21 peptide: GLIFFEDGIWPL

[22] = target: T22, AMH3647-6 (Otolemur sequence) (Otolemur)
T22 peptide: GLIFHKDWDWQP

[23] = target: T23, AMH3647-1 (Deer sequence) (Deer)
T23 peptide: ALIFQQDWDWPL

[24] = target: T24, AMH3647-4 (Lemur sequence) (Lemur)
T24 peptide: GLIFHEDWDWLP

[25] = target: T25, AMH3647-24 (Owl sequence) (Owl)
T25 peptide: GLIFGEDVDWPP

[26] = target: T26, AMH3647-11 (Neotoma sequence) (Neotoma)
T26 peptide: GLIFLEDGIWPP

[27] = target: T27, AMH3647-18 (Simum sequence) (Simum)
T27 peptide: GLIFRQDWDWPP

- percent inhibition [1]: 2%
- percent inhibition [2]: 92%
- percent inhibition [3]: 6%
- percent inhibition [4]: 1%
- percent inhibition [5]: 68%
- percent inhibition [6]: 38%
- percent inhibition [7]: 65%
- percent inhibition [8]: 64%
- percent inhibition [9]: 10%
- percent inhibition [10]: 57%
- percent inhibition [11]: 71%
- percent inhibition [12]: 33%
- percent inhibition [13]: 61%
- percent inhibition [14]: 32%
- percent inhibition [15]: 60%
- percent inhibition [16]: 35%
- percent inhibition [17]: 32%
- percent inhibition [18]: 68%
- percent inhibition [19]: 29%
- percent inhibition [20]: 57%
- percent inhibition [21]: 8%
- percent inhibition [22]: 3%
- percent inhibition [23]: -6%
- percent inhibition [24]: 22%
- percent inhibition [25]: 19%
- percent inhibition [26]: 5%
- percent inhibition [27]: 19%
B1: monoclonal antibody C9F2-2 (antibody, V domains shown)
VH: EVQLVESGGGLVKPGGSLKLSCAASGFAFSTYDMSWVRQTPEKRLEWVAYISPGGGATYYPDTVKGRFTISRDNAKNTLYLQMTSLKSEDTAMYYCAGRRDYYGMDYWGQGTSVTVSS
VL: DVVMTQTPLSLPVSLGDQASISCRSSQSLVHSNGNTYLHWYLQKPGQSPKLLIYKVSNRFSGVPDRFSGSGSGTDFTLKISRVEAEDLGVYFCSQSTHVPWTFGGGTKLEIK
notes: Mouse hybridoma antibody purified from ascites; the tie is indirect; also called hybridoma CCTCC NO: C2018183
